Test results reported in patent publication US20200190189A1.
Substitutions are numbered along the chain they refer to. Blank lines part the entries; values can stand above or below the binder they belong to.

How the values were obtained:
[1] = target: Human CD3 on T cells in donor PBMC (human) (UniProt P07766); test: cell-based or functional assay
[2] = target: Human CD3εδ heterodimeric Fc fusion (human); test: ForteBio BLI, Fab KD, monovalent
[3] = target: Cynomolgus CD3εδ heterodimeric Fc fusion (cynomolgus); test: ForteBio BLI, Fab KD, monovalent

Sequence of Human CD3 on T cells in donor PBMC (human) (P07766 23-207): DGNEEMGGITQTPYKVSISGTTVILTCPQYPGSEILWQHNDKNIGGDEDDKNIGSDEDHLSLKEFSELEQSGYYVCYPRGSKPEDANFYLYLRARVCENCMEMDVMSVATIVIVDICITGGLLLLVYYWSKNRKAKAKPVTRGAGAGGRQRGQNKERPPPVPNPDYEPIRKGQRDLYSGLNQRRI

- D5801 10 nM Fab IFNg [1]: 0 pg/mL
- Fab IFNg, donor A4560 PBMC, 0.3 nM [1]: 0 pg/mL
- Fab IFNg, donor A4560 PBMC, 10 nM [1]: 0 pg/mL
- Fab IFNg, donor D5801 PBMC, 0.3 nM [1]: 0 pg/mL
B1: ADI-26954 Fab (Fab, from a related filing, V domains shown)
VH: QVQLVQSGAEVKKPGASVKVSCKASGFNIKDYYMHWVRQAPGQRLEWMGWIDLENANTIYDAKFQGRVTITRDTSASTAYMELSSLRSEDTAVYYCARDNYGGYFYDVWGQGTLVTVSS
VL: DIVMTQSPDSLAVSLGERATINCKSSQSLLESRTGKNYLAWYQQKPGQPPKLLIYWASTRESGVPDRFSGSGSGTDFTLTISSLQAEDVAVYYCKQSYSLRTFGGGTKVEIK

- Fab IFNg, donor D5801 PBMC, 10 nM [1]: 0 pg/mL
B2: ADI-26928 Fab (Fab, from a related filing, V domains shown)
VH: B1 VH with N55E, A56G, A97G, N100A, G103L
VL: B1 VL with E31N, S32A

- Kd [2]: 1100 nM
- Kd [3]: 220 nM
- D5801 10 nM Fab IFNg [1]: 0 pg/mL
B3: ADI-26941 Fab (Fab, from a related filing, V domains shown)
VH: B1 VH with N55E, A56G, N100Q, G103R
VL: B1 VL with E31N, S32A, L100I
